One may read the Kd as a measure of binding affinity in units of concentration. The IC50 is the concentration needed to halve the response being measured. Read a low IC50 as higher potency.

Drawing on the Immune Epitope Database (IEDB), this text covers Kd and IC50 for six sequences.

One test deals with HLA-B*15:42. Description: IEDB peptide-MHC binding, purified MHC/competitive/fluorescence; filed as Kd, often an IC50 or EC50 that approximates it; ≥ and ≤ were set here for values at or beyond the usual limits of such assays.
For a further test, the target named is HLA-A*32:15. The description is as above.
The next test has as its target HLA-A*32:07. The description is as above.
Another test has as its target HLA-C*04:01. Described as above.
In a further test the target is HLA-B*83:01. The description is as above.
A further test concerns the target HLA-B*45:06. The description is as above.
The target of the next test is HLA-A*29:02. The test is described as above. As to conditions: source organism: Mycosarcoma maydis.
A further test deals with HLA-A*11:01. Description: IEDB peptide-MHC binding, purified MHC/competitive/fluorescence; ≥ and ≤ were set here for values at or beyond the usual limits of such assays.
A further test has as its target HLA-A*24:02. The description is as above. The following applies: source organism: Zaire ebolavirus.
The target of a further test is HLA-A*01:01. Described as above.
For another test, the target named is HLA-A*02:01. The test is described as above. As to conditions: source organism: Zaire ebolavirus.
In a further test the target is HLA-C*07:02. Description: IEDB peptide-MHC binding, purified MHC/direct/fluorescence; filed as Kd, often an IC50 or EC50 that approximates it; ≥ and ≤ were set here for values at or beyond the usual limits of such assays. The following applies: source organism: Mycobacterium tuberculosis variant bovis BCG str. Pasteur 1173P2.
A further test concerns the target HLA-C*06:02. The description is as above. The following applies: source organism: Mycobacterium tuberculosis variant bovis BCG str. Pasteur 1173P2.
The target in the next test is HLA-C*14:02. Described as above.
For a further test, the target named is HLA-C*15:02. The description is as above.
In the next test the target is HLA-A*02:11. The test is described as above. As to conditions: source organism: Mycobacterium tuberculosis str. Haarlem.
A further test has as its target HLA-A*02:03. The description is as above. As to conditions: source organism: Mycobacterium tuberculosis str. Haarlem.
A further test deals with HLA-A*69:01. The description is as above. As to conditions: source organism: Mycobacterium tuberculosis.
The target of another test is HLA-C*05:01. Described as above.
A further test has as its target HLA-C*03:03. Described as above. The following applies: source organism: Escherichia coli str. K-12 substr. MG1655.
The target of the next test is HLA-B*58:01. Description: IEDB peptide-MHC binding, purified MHC/competitive/fluorescence; filed as Kd, often an IC50 or EC50 that approximates it; ≥ and ≤ were set here for values at or beyond the usual limits of such assays. The following applies: source organism: Escherichia coli str. K-12 substr. MG1655.
The next test addresses HLA-B*39:01. The description is as above. As to conditions: source organism: Escherichia coli str. K-12 substr. MG1655.
For a further test, the target named is HLA-A*33:01. The test can be described thus: IEDB peptide-MHC binding, purified MHC/competitive/radioactivity; filed as Kd, often an IC50 or EC50 that approximates it; ≥ and ≤ were set here for values at or beyond the usual limits of such assays. The following applies: source organism: Vaccinia virus WR.
A further test addresses HLA-A*31:01. Described as above. The following applies: source organism: Vaccinia virus WR.
Another test has as its target HLA-A*68:01. The test is described as above. The following applies: source organism: Vaccinia virus WR.
Another test deals with HLA-B*15:01. Description: IEDB peptide-MHC binding, purified MHC/competitive/fluorescence; ≥ and ≤ were set here for values at or beyond the usual limits of such assays. As to conditions: source organism: Vaccinia virus Copenhagen.
For a further test, the target named is HLA-A*03:01. The test is described as above. The following applies: source organism: Vaccinia virus Copenhagen.
In another test the target is HLA-A*26:01. Description: IEDB peptide-MHC binding, purified MHC/direct/fluorescence; filed as Kd, often an IC50 or EC50 that approximates it; ≥ and ≤ were set here for values at or beyond the usual limits of such assays. The following applies: source organism: Mycobacterium tuberculosis.
The target in the next test is HLA-C*08:02. The test is described as above. The following applies: source organism: Mycobacterium tuberculosis str. Haarlem.
Where [1] appears, read: source organism: Mycosarcoma maydis.
Setting [2] is: source organism: Zaire ebolavirus.
The mark [3] stands for this setting: source organism: Mycobacterium tuberculosis variant bovis BCG str. Pasteur 1173P2.
Setting [4] is: source organism: Escherichia coli str. K-12 substr. MG1655.
The mark [5] stands for this setting: source organism: Vaccinia virus Copenhagen.
The mark [6] stands for this setting: source organism: Mycobacterium tuberculosis str. Haarlem.

Consider IPVHPRHPY, for which the Kd is not below 5 µM in the test with HLA-B*15:42 (setting [1]); 1.43 µM with HLA-A*32:15 (setting [1]); 0.393 µM with HLA-A*32:07 (setting [1]); not below 5 µM with HLA-C*04:01 (setting [1]); 0.222 µM with HLA-B*83:01 (setting [1]); not below 5 µM with HLA-B*45:06 (setting [1]). The sequence also gave a Kd in the test with HLA-A*29:02 of 0.938 µM.

For the sequence ITDKIDQII, the IC50 with HLA-A*11:01 (setting [2]) was found to be 39.2 µM; with HLA-A*24:02, 8.7 µM; with HLA-A*01:01 (setting [2]), 5.95 µM; in the test with HLA-A*02:01 it was 5.02 µM.

As for YMLDMTFPV, the Kd in the test with HLA-C*07:02 is 0.651 µM; with HLA-C*06:02, not below 20 µM; with HLA-C*14:02 (setting [3]), 0.076 µM; in the test with HLA-C*15:02 (setting [3]), 0.407 µM; with HLA-A*02:11, not above 0.001 µM; with HLA-A*02:03, not above 0.001 µM. In addition, the equilibrium dissociation constant (Kd) with HLA-A*69:01 was not above 0.001 µM; with HLA-C*05:01 (setting [3]) it was 3.43 µM.

Turning to AAAVAYPEL, the Kd was 2.99 µM with HLA-C*14:02 (setting [4]); 0.002 µM in the test with HLA-C*03:03; not below 20 µM with HLA-C*05:01 (setting [4]); not below 20 µM with HLA-B*58:01; not below 20 µM with HLA-B*39:01.

In the case of KSNAKCIEY, the figures for the Kd with HLA-A*33:01, in the test with HLA-A*31:01 and in the test with HLA-A*68:01 were not below 25.8 µM, 0.347 µM and not below 24.7 µM, respectively. For the same sequence, the IC50 with HLA-B*15:01 was determined as 18.2 µM; with HLA-A*11:01 (setting [5]) it was 21.7 µM; with HLA-A*01:01 (setting [5]), 41.8 µM; in the test with HLA-A*03:01, 16.5 µM.

Take YTPEQWWPF: the Kd with HLA-C*14:02 (setting [6]) is 0.969 µM; with HLA-C*15:02 (setting [6]) it was not below 20 µM; in the test with HLA-A*26:01 it was 0.0114 µM; with HLA-C*08:02, not below 20 µM; in the test with HLA-B*15:42 (setting [6]), not below 5 µM; in the test with HLA-A*32:15 (setting [6]), 0.0382 µM. Also, the Kd with HLA-A*32:07 (setting [6]) was 0.0229 µM; with HLA-C*04:01 (setting [6]), not below 5 µM; in the test with HLA-B*83:01 (setting [6]) it was not below 5 µM; in the test with HLA-B*45:06 (setting [6]), not below 5 µM.
